Experiments:
[1] = target: Olfm1^BMY (olfactomedin-1 natural short isoform BMY, residues 17–153), disulfide-linked tetramer (mouse (Mus musculus)); test: SAXS; ESRF BM29, 0.615 mg/mL in SEC buffer (150 mM NaCl, 2 mM CaCl2, 20 mM HEPES pH 7.5), 277 K; mass from I0
[2] = target: Olfm1^BMY (olfactomedin-1 natural short isoform BMY, residues 17–153), disulfide-linked tetramer (mouse (Mus musculus)); test: non-reducing SDS-PAGE; Coomassie-stained SDS-PAGE of purified protein with and without DTT; covalent (disulfide-linked) oligomeric state
[3] = target: Olfm1^BMY (olfactomedin-1 natural short isoform BMY, residues 17–153), disulfide-linked tetramer (mouse (Mus musculus)); test: SEC-MALS; analytical Superdex200 Increase 10/300, room temperature, SEC buffer (150 mM NaCl, 2 mM CaCl2, 20 mM HEPES pH 7.5), 0.5 mL/min; aldolase as calibration standard

Measured: stoichiometry N

Sequence of Olfm1^BMY (olfactomedin-1 natural short isoform BMY, residues 17–153), disulfide-linked tetramer (natural protein) (O88998 17-485): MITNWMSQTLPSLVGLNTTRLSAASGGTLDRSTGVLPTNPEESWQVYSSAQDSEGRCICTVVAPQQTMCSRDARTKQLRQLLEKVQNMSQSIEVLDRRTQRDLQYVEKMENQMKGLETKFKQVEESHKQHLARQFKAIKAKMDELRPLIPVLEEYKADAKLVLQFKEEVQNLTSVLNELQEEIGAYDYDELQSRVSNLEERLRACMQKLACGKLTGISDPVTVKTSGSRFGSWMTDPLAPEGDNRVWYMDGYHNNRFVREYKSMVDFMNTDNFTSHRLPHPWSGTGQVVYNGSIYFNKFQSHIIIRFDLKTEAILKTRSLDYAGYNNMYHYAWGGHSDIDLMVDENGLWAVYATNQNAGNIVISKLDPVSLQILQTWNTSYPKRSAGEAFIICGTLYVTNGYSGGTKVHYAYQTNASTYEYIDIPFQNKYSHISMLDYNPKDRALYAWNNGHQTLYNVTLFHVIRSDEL

Olfm1^BMY (olfactomedin-1 natural short isoform BMY, residues 17–153), disulfide-linked tetramer (natural protein)
4: all assays above

— publication PMC6857237
